According to patent US20220406376A1 (MacroGenics, published 2022):

T1: 5T4 on the surface of target cells (JIMT-1, SKOV-3) (UniProt Q13641 32-420, limits assumed)
T1 construct: whole, on cells
T1 sequence (looked up): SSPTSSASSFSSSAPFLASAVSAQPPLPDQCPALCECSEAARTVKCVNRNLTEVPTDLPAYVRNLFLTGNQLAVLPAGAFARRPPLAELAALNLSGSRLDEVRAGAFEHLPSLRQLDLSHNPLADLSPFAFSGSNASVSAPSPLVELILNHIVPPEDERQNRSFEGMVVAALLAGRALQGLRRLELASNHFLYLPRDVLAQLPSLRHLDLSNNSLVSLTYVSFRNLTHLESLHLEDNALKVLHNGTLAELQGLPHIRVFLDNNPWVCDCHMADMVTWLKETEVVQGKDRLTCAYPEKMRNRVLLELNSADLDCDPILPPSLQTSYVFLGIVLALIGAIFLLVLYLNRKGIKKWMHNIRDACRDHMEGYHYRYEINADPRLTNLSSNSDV

B1: TRIDENT-B2 (bispecific antibody, human IgG1, kappa, L234A L235A)
chain 1: DIQMTQSPSSLSASVGDRVTITCRPSQDISNYLNWYQQKPDKTVKLLIYYTSRLRSGVPSRFSGSGSGTDFTFTISSLQPEDIATYFCQQGDTLPYTFGQGTKLEIKGGGSGGGGQVQLVQSGAEVKKPGASVKVSCKASGYTFTSYWINWVKQAPGQGLEWIGNIYPSDSYTNYNQKFKDKATITADKSTSTAYMELSSLRSEDTAVYYCTRDYGSAYSMSTWGQGTTVTVSSASTKGEVAACEKEVAALEKEVAALEKEVAALEKGGGDKTHTCPPCPAPEAAGGPSVFLFPPKPKDTLMISRTPEVTCVVVDVSHEDPEVKFNWYVDGVEVHNAKTKPREEQYNSTYRVVSVLTVLHQDWLNGKEYKCKVSNKALPAPIEKTISKAKGQPREPQVYTLPPSREEMTKNQVSLWCLVKGFYPSDIAVEWESNGQPENNYKTTPPVLDSDGSFFLYSKLTVDKSRWQQGNVFSCSVMHEALHNHYTQKSLSLSPGK
chain 2: DIQMTQSPSSLSASVGDRVTITCRPSQDISNYLNWYQQKPDKTVKLLIYYTSRLRSGVPSRFSGSGSGTDFTFTISSLQPEDIATYFCQQGDTLPYTFGQGTKLEIKGGGSGGGGQVQLVQSGAEVKKPGASVKVSCKASGYTFTSYWINWVKQAPGQGLEWIGNIYPSDSYTNYNQKFKDKATITADKSTSTAYMELSSLRSEDTAVYYCTRDYGSAYSMSTWGQGTTVTVSSASTKGKVAACKEKVAALKEKVAALKEKVAALKE
heavy: QVQLVQSGAEVKKPGASVKVSCKASGYTFTSFWMHWVRQAPGQGLEWMGRIDPNRGGTEYNEKAKSRVTMTADKSTSTAYMELSSLRSEDTAVYYCAGGNPYYPMDYWGQGTTVTVSSASTKGPSVFPLAPSSKSTSGGTAALGCLVKDYFPEPVTVSWNSGALTSGVHTFPAVLQSSGLYSLSSVVTVPSSSLGTQTYICNVNHKPSNTKVDKRVEPKSCDKTHTCPPCPAPEAAGGPSVFLFPPKPKDTLMISRTPEVTCVVVDVSHEDPEVKFNWYVDGVEVHNAKTKPREEQYNSTYRVVSVLTVLHQDWLNGKEYKCKVSNKALPAPIEKTISKAKGQPREPQVYTLPPSREEMTKNQVSLSCAVKGFYPSDIAVEWESNGQPENNYKTTPPVLDSDGSFFLVSKLTVDKSRWQQGNVFSCSVMHEALHNRYTQKSLSLSPGK
light: DIQMTQSPSSLSASVGDRVTITCRASQGISNYLAWFQQKPGKAPKSLIYRANRLQSGVPSRFSGSGSGTDFTLTISSLQPEDVATYYCLQYDDFPWTFGQGTKLEIKRTVAAPSVFIFPPSDEQLKSGTASVVCLLNNFYPREAKVQWKVDNALQSGNSQESVTEQDSKDSTYSLSSTLTLSKADYEKHKVYACEVTHQGLSSPVTKSFNRGEC
B2: TRIDENT-3 (other)
chain 1: DIQMTQSPSTLSASVGDRVTITCRASQSVGYMHWYQQKPGKAPKLLIYDTSKLASGVPSRFSGSGSGTEFTLTISSLQPDDFATYYCFQGSGYPFTFGGGTKLEIKGGGSGGGGEVKLDETGGGLVQPGRPMKLSCVASGFTFSDYWMNWVRQSPEKGLEWVAQIRNKPYNYETYYSDSVKGRFTISRDDSKSSVYLQMNNLRVEDMGIYYCTGSYYGMDYWGQGTSVTVSSASTKGEVAACEKEVAALEKEVAALEKEVAALEKGGGDKTHTCPPCPAPEAAGGPSVFLFPPKPKDTLMISRTPEVTCVVVDVSHEDPEVKFNWYVDGVEVHNAKTKPREEQYNSTYRVVSVLTVLHQDWLNGKEYKCKVSNKALPAPIEKTISKAKGQPREPQVYTLPPSREEMTKNQVSLWCLVKGFYPSDIAVEWESNGQPENNYKTTPPVLDSDGSFFLYSKLTVDKSRWQQGNVFSCSVMHEALHNHYTQKSLSLSPGK
chain 2: DVVMTQTPFSLPVSLGDQASISCRSSQSLVHSNGNTYLRWYLQKPGQSPKVLIYKVSNRFSGVPDRFSGSGSGTDFTLKISRVEAEDLGVYFCSQSTHVPWTFGGGTKLEIKGGGSGGGGQVTLRESGPALVKPTQTLTLTCTFSGFSLSTSGMSVGWIRQPPGKALEWLADIWWDDKKDYNPSLKSRLTISKDTSKNQVVLKVTNMDPADTATYYCARSMITNWYFDVWGAGTTVTVSSASTKGKVAACKEKVAALKEKVAALKEKVAALKE
heavy: QVQLVQSGAEVKKPGASVKVSCKASGYTFTSFWMHWVRQAPGQGLEWMGRIDPNRGGTEYNEKAKSRVTMTADKSTSTAYMELSSLRSEDTAVYYCAGGNPYYPMDYWGQGTTVTVSSASTKGPSVFPLAPSSKSTSGGTAALGCLVKDYFPEPVTVSWNSGALTSGVHTFPAVLQSSGLYSLSSVVTVPSSSLGTQTYICNVNHKPSNTKVDKRVEPKSCDKTHTCPPCPAPEAAGGPSVFLFPPKPKDTLMISRTPEVTCVVVDVSHEDPEVKFNWYVDGVEVHNAKTKPREEQYNSTYRVVSVLTVLHQDWLNGKEYKCKVSNKALPAPIEKTISKAKGQPREPQVYTLPPSREEMTKNQVSLSCAVKGFYPSDIAVEWESNGQPENNYKTTPPVLDSDGSFFLVSKLTVDKSRWQQGNVFSCSVMHEALHNRYTQKSLSLSPGK
light: DIQMTQSPSSLSASVGDRVTITCRASQGISNYLAWFQQKPGKAPKSLIYRANRLQSGVPSRFSGSGSGTDFTLTISSLQPEDVATYYCLQYDDFPWTFGQGTKLEIKRTVAAPSVFIFPPSDEQLKSGTASVVCLLNNFYPREAKVQWKVDNALQSGNSQESVTEQDSKDSTYSLSSTLTLSKADYEKHKVYACEVTHQGLSSPVTKSFNRGEC
B3: TRIDENT-B5 (bispecific antibody, human IgG1, kappa, L234A L235A)
chain 1: DIQMTQSPSSLSASVGDRVTITCQASQDISNYLNWYQQKPDKTVKLLIYYTGRARSGVPSRFSGSGSGTDFTFTISSLQPEDIATYFCQQGDTLPYTFGQGTKLEIKGGGSGGGGQVQLVQSGAEVKKPGASVKVSCKASGYTFTSYWINWVRQAPGQGLEWIGNIYPSDSYTNYNQKFKDKATITADKSTSTAYMELSSLRSEDTAVYYCTRDYGSAYSMSTWGQGTTVTVSSASTKGEVAACEKEVAALEKEVAALEKEVAALEKGGGDKTHTCPPCPAPEAAGGPSVFLFPPKPKDTLMISRTPEVTCVVVDVSHEDPEVKFNWYVDGVEVHNAKTKPREEQYNSTYRVVSVLTVLHQDWLNGKEYKCKVSNKALPAPIEKTISKAKGQPREPQVYTLPPSREEMTKNQVSLWCLVKGFYPSDIAVEWESNGQPENNYKTTPPVLDSDGSFFLYSKLTVDKSRWQQGNVFSCSVMHEALHNHYTQKSLSLSPGK
chain 2: DIQMTQSPSSLSASVGDRVTITCQASQDISNYLNWYQQKPDKTVKLLIYYTGRARSGVPSRFSGSGSGTDFTFTISSLQPEDIATYFCQQGDTLPYTFGQGTKLEIKGGGSGGGGQVQLVQSGAEVKKPGASVKVSCKASGYTFTSYWINWVRQAPGQGLEWIGNIYPSDSYTNYNQKFKDKATITADKSTSTAYMELSSLRSEDTAVYYCTRDYGSAYSMSTWGQGTTVTVSSASTKGKVAACKEKVAALKEKVAALKEKVAALKE
heavy: QVQLVQSGAEVKKPGASVKVSCKASGYTFTSFWMHWVRQAPGQGLEWMGRIDPNRGGTEYNEKAKSRVTMTADKSTSTAYMELSSLRSEDTAVYYCAGGNPYYPMDYWGQGTTVTVSSASTKGPSVFPLAPSSKSTSGGTAALGCLVKDYFPEPVTVSWNSGALTSGVHTFPAVLQSSGLYSLSSVVTVPSSSLGTQTYICNVNHKPSNTKVDKRVEPKSCDKTHTCPPCPAPEAAGGPSVFLFPPKPKDTLMISRTPEVTCVVVDVSHEDPEVKFNWYVDGVEVHNAKTKPREEQYNSTYRVVSVLTVLHQDWLNGKEYKCKVSNKALPAPIEKTISKAKGQPREPQVYTLPPSREEMTKNQVSLSCAVKGFYPSDIAVEWESNGQPENNYKTTPPVLDSDGSFFLVSKLTVDKSRWQQGNVFSCSVMHEALHNRYTQKSLSLSPGK
light: DIQMTQSPSSLSASVGDRVTITCRASQGISNYLAWFQQKPGKAPKSLIYRANRLQSGVPSRFSGSGSGTDFTLTISSLQPEDVATYYCLQYDDFPWTFGQGTKLEIKRTVAAPSVFIFPPSDEQLKSGTASVVCLLNNFYPREAKVQWKVDNALQSGNSQESVTEQDSKDSTYSLSSTLTLSKADYEKHKVYACEVTHQGLSSPVTKSFNRGEC
notes: also called TRIDENT-BS
B4: hCD137 MAB-3 (1B.3) (antibody, V domains shown)
VH: QVQLVQSGAEVKKPGASVKVSCKASGYTFTSYWINWVKQAPGQGLEWIGNIYPSDSYTNYNQKFKDKATITADKSTSTAYMELSSLRSEDTAVYYCTRDYGSAYSMSTWGQGTTVTVSS
VL: DIQMTQSPSSLSASVGDRVTITCRPSQDISNYLNWYQQKPDKTVKLLIYYTSRLRSGVPSRFSGSGSGTDFTFTISSLQPEDIATYFCQQGDTLPYTFGQGTKLEIK

Experiments:
[1] = biological target: T1, 5T4 on the surface of target cells …; assay: flow cytometry on JIMT-1 (5T4 hi) cells, anti-hFc APC MFI
[2] = biological target: T2, CD137 on the surface of cells (activated human T cells; engineered CHO cells) (human, UniProt Q07011 24-255); assay: flow cytometry on activated CD8+ T cells (donor D59788, CD8 FITC), anti-hFc APC MFI
T2 construct: whole, on cells; also called human CD137; cell surface expressed CD137
T2 sequence (Q07011 24-255, change not shown): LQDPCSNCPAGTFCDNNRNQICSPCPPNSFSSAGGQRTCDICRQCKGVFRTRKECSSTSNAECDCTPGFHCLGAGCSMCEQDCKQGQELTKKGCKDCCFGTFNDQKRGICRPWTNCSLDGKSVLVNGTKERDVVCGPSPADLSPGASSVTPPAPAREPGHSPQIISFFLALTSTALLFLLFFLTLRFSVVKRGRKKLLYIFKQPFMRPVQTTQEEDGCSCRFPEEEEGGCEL

[3] = biological target: T1, 5T4 on the surface of target cells …; assay: flow cytometry on SKOV-3 (5T4 lo) cells, anti-hFc APC MFI
[4] = biological target: T2, CD137 on the surface of cells …; assay: flow cytometry on activated pan T cells gated CD8+ (donor D43867), anti-hFc APC MFI
Procedure: Three antibodies were selected for further study. For such evaluations, purified pan T-cells (see above) were stimulated with anti-CD3/CD28 beads (cells:beads=1:1) for 72 hours in the presence of IL-2 (100 U/mL). 100 μL of activated T cells (1.0×10⁶ cells/mL) and 100 μL of serially diluted (5- or 10-fold dilutions) test article (antibody or bispecific diabody) was added to each well of microtiter assay plate(s), mixed and incubated at RT for 45 min. The cells were washed with FACS Buffer and secondary antibody (anti-human-Fc region-APC) was then added to each well; mixed and incubated at RT for 30 min. Cells were then washed FACS Buffer and T cell surface marker antibodies (anti-CD4 labeled with V510, and anti-CD8 labeled with FITC) were then added to each well; mixed and incubated at RT for 30 min. Cells were washed and resuspended in 100 μL FACS Buffer and analyzed by flow cytometry (BD LSR Fortessa or FACSCanto 11) for cell event collection. Data analysis were performed via FloJo v10.

Binder	EC50 (read off the curve) [1] [µg/mL]	EC50 (read off the curve) [2] [µg/mL]	EC50 (read off the curve) [3] [µg/mL]	EC50 (read off the curve) [4] [µg/mL]
B1	~0.08	~0.007	~0.04	
B2	~0.08		~0.04	
B3	~0.08	~0.007	~0.04	
B4				~0.007
